From publication doi:10.1101/247270

Molecular target: Dansyl-calmodulin (dansyl-CaM), purified, P0DP23
Experiment: other fluorescence titration
Details: remark: other sources report otherwise

stoichiometry N: 1
B1: Regulator of G Protein Signaling 14 (RGS14), purified recombinant protein, O08773 1-544 (natural protein)
chain: MPGKPKHLGVPNGRMVLAVSDGELTSTSGSQAQGEGRGSSLSIHSLPSGPSSPFSTDEQPVASWAQSFERLLQDPRGLAYFTEFLKKEFSAENVTFWQACERFQQIPASDTKQLAQEAHNIYHEFLSSQALSPVNIDRQAWLSEEVLAQPRPDMFRAQQLQIFNLMKFDSYARFVKSPLYQECLLAEAEGRPLREPGSSHLGSPDTARKKPKLKPGKSLPLGVEELGQLPLAEGRPLRKSFRREMPGGAVNSALRRESQGSLNSSASLDLGFLAFVSSKSESHRKSLGSGEGESESRPGKYCCVYLPDGTASLALARPGLTIRDMLAGICEKRGLSLPDIKVYLVGKEQKALVLDQDCTVLADQEVRLENRITFQLELVGLERVVRISAKPTKRLQEALQPILAKHGLSLDQVVLHRPGEKQLVDLENLVSSVASQTLVLDTLPDAKTREASSIPPCRSQGCLPRTQTKDSHLPPLSSSLSVEDASGSTGKRQTCDIEGLVELLNRVQSSGAHDQRGLLRKEDLVLPEFLQLPSQRPGSQEAPP
modifications: here or on the partner: dansyl label (position not given)
